# Test results taken from patent publication US20170291955A1 (AstraZeneca / MedImmune, published 2017).
# Numbering of substitutions follows the chain as printed.
# B1: 39S antibody (antibody, V domains shown)
# VH: EVQLVESGGGLVKPGGSLRLSCAASGFTFSSYSMSWVRQAPGKGLEWVSSISSSSSYIYYADSVKGRFTISRDNAKNSLYLQMNSLRAEDTAVYYCARGGDAYNYYYFDYWGQGTLVTVSS
# VL: DIVMTQTPLSLSVTPGQPASISCKSSQSVFFRSNNKNILAWYLQKPGQPPQLLIYWASSRESGVPDRFSGSGSGTDFTLKISRVEAEDVGVYYCQQYFGSPFTFGPGTKVDIK
# notes: also called lead optimized 39S antibody (LO); anti-HER2 mAb 39S
# B2: AZ1.39.1 (antibody, V domains shown)
# VH: B1 VH with S35N, A102G
# VL: DIVMTQSPDSLAVSLGERATITCKSSQSVFFRSNNKNCLAWYQQRPGQPPNLLIYWASSRESGVPDRFSGSGSGTDFALTISSLQTEDVAVYYCQQYFGSPFTFGPGTKVDIK
# How the values were obtained:
# KO_159-162 = target: T1, KO_159-162 (human; mouse, UniProt P70424 182-185); test: SPR (ProteOn XPR36), variant captured by anti-Her2 polyclonal antibody, 39S injected; apparent affinity
# T1 construct: domain: counterpart of human amino acids 159-162
# Protocol: (§1) The chimeric variant nomenclature denotes types of variants (KO/KI) and the number of domains swapped. […] The expression of the variants was monitored by anti-His polyclonal antibody using ProteOn™.
# (§2) Standard amine coupling was used to immobilize an anti-human or mouse Her2 polyclonal antibody (R&D System) in 10 mM sodium acetate (pH 5.0) to the surface of a GLC biosensor chip at ˜5000 resonance units (RU) for each channel. The chimeric proteins in cell culture supernatant were injected and captured by anti-human or mouse polyclonal antibodies onto the GLC surface with a ˜200 RU response. […] The surface was regenerated twice by injecting glycine buffer (10 mM, pH 1.5) at 100 μL/min for 30 sec. All sensorgram data were processed with the ProteOn™ Manager 3.0.1 software.
# KO_171-187 = KO_171-187 (human; mouse, UniProt P70424 194-210); test: as above
# Protocol: as §1, §2
# KO_250-261 = target: T2, KO_250-261 (human; mouse, UniProt P70424 273-284); test: as above
# T2 construct: domain: counterpart of human amino acids 250-261
# Protocol: as §1, §2
# KO_276-285 = target: T3, KO_276-285 (human; mouse, UniProt P70424 299-308); test: as above
# T3 construct: domain: counterpart of human amino acids 276-285
# Protocol: as §1, §2
# KO_295-296 = target: T4, KO_295-296 (human; mouse, UniProt P70424 318-319); test: as above
# T4 construct: domain: counterpart of human amino acids 295-296
# Protocol: as §1, §2
# [1] = target: Human Her2 (control of Table 4) (human, UniProt P04626 23-652); test: SPR (ProteOn XPR36), human Her2 captured by anti-Her2 polyclonal antibody, 39S injected; apparent affinity
# Protocol: as §1, §2
# KO_192-208 = target: T5, KO_192-208 (human; mouse, UniProt P70424 215-231); test: SPR (ProteOn XPR36), variant captured by anti-Her2 polyclonal antibody, 39S injected
# T5 construct: domain: counterpart of human amino acids 192-208
# Protocol: as §1, §2
# KO_146-208 = target: T6, KO_146-208 (human; mouse, UniProt P70424 169-231); test: as above
# T6 construct: domain: counterpart of human amino acids 146-208
# Protocol: as §1, §2
# [2] = target: T7, recombinant human HER2 extracellular domain protein (human, UniProt P04626 23-652); test: BIAcore (SPR), format not stated
# [3] = target: T7, recombinant human HER2 extracellular …; test: BIAcore KD of 39S against the reported KD of 1.39.1
# human HER2 on cells = target: T8, human HER2 on cells (human, UniProt P04626 23-1255); test: FACS competition on BT-474 cells; competitor: fluorescently labelled 39S at 2 µg/mL; unlabelled antibody titrated
# T8 construct: whole, on cells; also called HER2 on BT-474 cells; HER2 on T47D cells
# Protocol: BT-474 cells were harvested, resuspended in FACS buffer, and 2.5×10⁵ cells/well were added to a 96-well U-bottom plate. […] After 1 hour of staining on ice, cells were washed 3 times with ice-cold FACS buffer and then fixed with 2% PFA. Cells were analyzed by a BD LSR II machine with BD FACSDiva™ software. Data were analyzed with FlowJo software and presented as mean MFI±SEM (n=3).
# [4] = target: T9, human HER4 recombinant extracellular domain protein (human, UniProt Q15303 26-651); test: capture ELISA on coated recombinant extracellular domain protein
# T9 construct: extracellular domain
# T9 sequence (looked up): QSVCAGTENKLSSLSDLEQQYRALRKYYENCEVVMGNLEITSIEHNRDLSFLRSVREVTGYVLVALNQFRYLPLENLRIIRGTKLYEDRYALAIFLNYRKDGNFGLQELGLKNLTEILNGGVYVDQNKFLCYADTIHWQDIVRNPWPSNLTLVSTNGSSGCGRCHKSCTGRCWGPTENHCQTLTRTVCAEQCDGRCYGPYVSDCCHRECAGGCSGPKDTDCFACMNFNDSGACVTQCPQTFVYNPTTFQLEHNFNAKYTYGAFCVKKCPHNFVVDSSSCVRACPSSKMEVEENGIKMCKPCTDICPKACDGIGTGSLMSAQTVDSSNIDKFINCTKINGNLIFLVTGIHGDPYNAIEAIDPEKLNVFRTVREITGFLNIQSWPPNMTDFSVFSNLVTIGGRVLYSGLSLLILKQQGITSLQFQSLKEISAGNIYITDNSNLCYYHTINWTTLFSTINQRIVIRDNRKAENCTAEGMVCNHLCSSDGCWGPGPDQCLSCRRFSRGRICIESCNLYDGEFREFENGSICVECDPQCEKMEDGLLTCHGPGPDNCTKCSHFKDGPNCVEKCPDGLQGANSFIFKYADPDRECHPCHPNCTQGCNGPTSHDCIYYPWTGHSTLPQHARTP
# Protocol: (§3) Antibody to be tested was prepared by diluting in a stepwise 1:3 serial dilution ranging from 50 nM down to 0.28 pM and then added to the wells in duplicate. After one hour of incubation, plates were washed, and goat anti-human IgG Fab HRP-conjugated secondary antibody was added to each well and the plates were incubated for 1 hour. The plates were washed and TMB substrate was added and incubated for 5-20 min to allow color development. The stop solution was added to the wells at the end of reaction and the plates were read at 450 nm. Binding signal (absorbance at 450 nm) was plotted against antibody concentration using Prism software.
# [5] = target: T10, human HER3 recombinant extracellular domain protein (human, UniProt P21860 20-643); test: as above
# T10 construct: extracellular domain
# Protocol: as §3
# [6] = target: T11, human EGFR recombinant extracellular domain protein (human, UniProt P00533 25-645); test: as above
# T11 construct: extracellular domain
# Protocol: as §3
# [7] = target: T12, mouse Her2 recombinant extracellular domain protein (mouse, UniProt P70424 23-653); test: as above
# T12 construct: extracellular domain
# Protocol: as §3
Binder,Kd (KO_159-162),Kd (KO_171-187),Kd (KO_250-261),Kd (KO_276-285),Kd (KO_295-296),Kd [1],binding result (KO_192-208),binding result (KO_146-208),Kd [2],fold increase in binding affinity over the parental antibody (1.39.1) [3],IC50 (read off the curve) (human HER2 on cells),binding result [4],binding result [5],binding result [6],binding result [7]
B1,0.101 nM,0.038 nM,0.187 nM,0.106 nM,0.0847 nM,0.084 nM,no binding,no binding,~1 nM,2 fold,~3 µg/mL,no binding (tested: 50 nM (highest concentration tested)),no binding (tested: 50 nM (highest concentration tested)),no binding (tested: 50 nM (highest concentration tested)),
B2,,,,,,,,,,,~5 µg/mL,no binding,no binding,no binding,no binding
